Residue numbers refer to the chain shown, from its start. Numbers in names are those of the source.
What was measured:
[1] = target: T1, FcγRIIB (form not stated) (UniProt P31994 43-217, limits assumed); assay: ELISA
T1 construct: also called FcγRIIB (ELISA)
T1 sequence (looked up): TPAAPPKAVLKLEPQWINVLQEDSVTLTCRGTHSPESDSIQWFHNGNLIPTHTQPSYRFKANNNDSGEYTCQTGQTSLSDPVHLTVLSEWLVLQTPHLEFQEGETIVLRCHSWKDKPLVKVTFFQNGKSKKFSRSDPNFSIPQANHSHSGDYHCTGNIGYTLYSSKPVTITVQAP

[2] = target: T2, FcγRIIIA (form not stated) (UniProt P08637 17-208, limits assumed); assay: ELISA
T2 construct: also called FcγRIIIA (ELISA)
T2 sequence (P08637 17-208 F176V limits assumed, form in doubt): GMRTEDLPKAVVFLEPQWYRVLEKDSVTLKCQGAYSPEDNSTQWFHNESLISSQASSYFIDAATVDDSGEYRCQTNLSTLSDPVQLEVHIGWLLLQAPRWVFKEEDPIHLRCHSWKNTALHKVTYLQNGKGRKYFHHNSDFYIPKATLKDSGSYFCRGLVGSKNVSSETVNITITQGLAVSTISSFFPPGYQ

[3] = target: T1, FcγRIIB (form not stated); assay: ELISA; remark: listed apart in the source
[4] = target: T2, FcγRIIIA (form not stated); assay: ELISA; remark: listed apart in the source
[5] = target: T3, FcγRIIIA 158V, soluble monomer (extracellular region joined to linker-AVITAG) (UniProt P08637 17-208, limits assumed); assay: BIAcore, ch4-4-20
T3 construct: extracellular domain; also called 3aV158; 3A 158V
T3 sequence (P08637 17-208 F176V limits assumed): as the sequence (P08637 17-208 F176V limits assumed, form in doubt) above
Protocol: (§1) Following this, the unreacted active esters were “capped off” with an injection of 1M Et-NH2. Once a suitable surface was prepared, ch 4-4-20 antibodies carrying the Fc mutations were passed over the surface by one minute injections of a 20 μg/mL solution at a […] flow rate. […] Next, dilution series of the receptor (FcγRIIIA and FcγRIIB-Fc fusion protein) in HBS-P buffer (10 mM HEPES, 150 mM NaCl, 0.005% Surfactant P20, 3 mM EDTA, pH 7.4) were injected onto the surface at 100 μL/min Antibody regeneration between different receptor dilutions was carried out by single 5 second injections of 100 mM NaHCO₃ pH 9.4; 3M NaCl.
(§2) Binding curves for two different concentrations (200 nM and 800 nM for FcγRIIIA and 200 nM and 400 nM for FcγRIIB fusion protein) were aligned and responses adjusted to the same level of captured antibodies, and the reference curves were subtracted from the experimental curves. Association and dissociation phases were fitted separately. Dissociation rate constant was obtained for interval 32-34 sec of the dissociation phase; association phase fit was obtained by a 1:1 Langmuir model and base fit was selected on the basis Rₘₐₓ and chi² criteria.
(§3) Secondary Screen of Mutants via BIAcore: Mutants that were selected in the above screens were then analyzed by BIAcore to determine the kinetic parameters for binding FcγRIIIA (158V) and FcγRIIB. The method used was similar to that disclosed in Section 7.1, supra.

[6] = target: T4, FcγRIIB-Fc fusion protein, soluble dimer: extracellular domain of FcγRIIB fused to the hinge-CH2-CH3 domain … (human, UniProt P31994 43-217, limits assumed); assay: BIAcore, ch4-4-20
T4 construct: extracellular domain; also called FcRIIB-Fc; 2bfcagl; not shown: human IgG2 hinge-CH2-CH3
T4 sequence (looked up): T1 sequence (looked up)
Protocol: as §1, §2, §3

[7] = target: T4, FcγRIIB-Fc fusion protein, soluble …; assay: BIAcore, Ab on BSA-FITC
Protocol: as §1, §2

[8] = target: T4, FcγRIIB-Fc fusion protein, soluble …; assay: ELISA
[9] = target: T5, soluble monomeric FcγRIIIA, the extracellular region of FcγRIIIA joined to the linker-AVITAG sequence (UniProt P08637 17-208); assay: BIAcore, Ab on BSA-FITC
T5 construct: extracellular domain; also called FcRIIIA

B1: ch4-4-20 G316D, A378V, D399E (antibody)
heavy: ASTKGPSVFPLAPSSKSTSGGTAALGCLVKDYFPEPVTVSWNSGALTSGVHTFPAVLQSSGLYSLSSVVTVPSSSLGTQTYICNVNHKPSNTKVDKKVEPKSCDKTHTCPPCPAPELLGGPSVFLFPPKPKDTLMISRTPEVTCVVVDVSHEDPEVKFNWYVDGVEVHNAKTKPREEQYNSTYRVVSVLTVLHQDWLNDKEYKCKVSNKALPAPIEKTISKAKGQPREPQVYTLPPSRDELTKNQVSLTCLVKGFYPSDIVVEWESNGQPENNYKTTPPVLESDGSFFLYSKLTVDKSRWQQGNVFSCSVMHEALHNHYTQKSLSLSPGK
fold increase vs WT [1]: 14 x
fold increase vs WT [2]: 1.5 x
ELISA binding, fold vs Wt [3]: 14 X
ELISA binding, fold vs Wt [4]: 1.5 X

B2: ch4-4-20 V348M, K334N, F275I, Y202M, K147T (antibody)
chain: B1 heavy with K30T, V85M, F158I, D199G, K217N, V231M, V261A, E282D
fold increase vs WT [1]: 0.75 x
fold increase vs WT [2]: 0.5 x

B3: ch4-4-20 MgFc39 (E293V, Q295E, A327T) (antibody)
heavy: B1 heavy with E176V, Q178E, D199G, A210T, V261A, E282D
fold increase vs WT [2]: 0.4 x
ELISA binding, fold vs Wt [4]: 1.4 X
Koff WT/Mut [5]: 0.86 ratio
Koff WT/Mut [6]: 1.3 ratio

B4: ch4-4-20 MgFc63 (S298N, K360R, N361D) (antibody)
heavy: B1 heavy with S181N, D199G, K243R, N244D, V261A, E282D
Koff WT/Mut [6]: 0.67 ratio

B5: ch4-4-20 V397M, T411A, S415N (antibody)
heavy: B1 heavy with D199G, V261A, V280M, E282D, T294A, S298N
fold increase vs WT [1]: 5 x
fold increase vs WT [2]: 0.25 x

B6: ch4-4-20 MgFc43 (Y319F, P352L, P396L) (antibody)
heavy: B1 heavy with D199G, Y202F, P235L, V261A, P279L, E282D
Koff WT/Mut [5]: 1.23 ratio
Koff WT/Mut [6]: 2.29 ratio

B7: ch4-4-20 V282E, V369I, L406F (antibody)
heavy: B1 heavy with V165E, D199G, V252I, V261A, E282D, L289F
fold increase vs WT [1]: 7 x
fold increase vs WT [2]: 0.5 x

B8: ch4-4-20 K334E, T359N, T366S (antibody)
heavy: B1 heavy with D199G, K217E, T242N, T249S, V261A, E282D
binding result [1]: binds
fold increase vs WT [2]: 1.5 x
ELISA binding, fold vs Wt [4]: 1.5 X

B9: ch4-4-20 Mut 10 (P396L, A330S, K288N) (antibody)
heavy: B1 heavy with K171N, D199G, A213S, V261A, P279L, E282D
notes: also called Mut10(0225); K288N, A330S, P396L
Kd [7]: 41.3 nM
koff [7]: 0.05 s⁻¹
ELISA, OD [8]: 1.2 OD

B10: ch4-4-20 Mut23 (antibody)
chain 1: not shown
chain 2: DVVMTQTPLSLPVSLGDQASISCRSSQSLVHSNGNTYLRWYLQKPGQSPKVLIYKVSNRFSGVPDRFSGSGSGTDFTLKISRVEAEDLGVYFCSQSTHVPWTFGGGTKLEIKRTVAAPSVFIFPPSDEQLKSGTASVVCLLNNFYPREAKVQWKVDNALQSGNSQESVTEQDSKDSTYSLSSTLTLSKADYEKHKVYACEVTHQGLSSPVTKSFNRGEC
Kd [7]: 108 nM
koff [7]: 0.107 s⁻¹
ELISA, OD [8]: 0.1 OD
Kd [9]: 70.2 nM
koff [9]: 0.105 s⁻¹
kon [9]: 1.43e+06 M⁻¹ s⁻¹

B11: ch4-4-20 MgFc66 (A330V, V427M) (antibody)
chain 1: not shown
chain 2: B10 chain 2
Koff WT/Mut [6]: 0.62 ratio
